Reference: patent US20130142799A1 (Amgen, published 2013)

T1: human angiopoietin-2 (human, UniProt O15123 19-496, limits assumed)
T1 construct: also called hAng-2; huAng-2
T1 sequence (looked up): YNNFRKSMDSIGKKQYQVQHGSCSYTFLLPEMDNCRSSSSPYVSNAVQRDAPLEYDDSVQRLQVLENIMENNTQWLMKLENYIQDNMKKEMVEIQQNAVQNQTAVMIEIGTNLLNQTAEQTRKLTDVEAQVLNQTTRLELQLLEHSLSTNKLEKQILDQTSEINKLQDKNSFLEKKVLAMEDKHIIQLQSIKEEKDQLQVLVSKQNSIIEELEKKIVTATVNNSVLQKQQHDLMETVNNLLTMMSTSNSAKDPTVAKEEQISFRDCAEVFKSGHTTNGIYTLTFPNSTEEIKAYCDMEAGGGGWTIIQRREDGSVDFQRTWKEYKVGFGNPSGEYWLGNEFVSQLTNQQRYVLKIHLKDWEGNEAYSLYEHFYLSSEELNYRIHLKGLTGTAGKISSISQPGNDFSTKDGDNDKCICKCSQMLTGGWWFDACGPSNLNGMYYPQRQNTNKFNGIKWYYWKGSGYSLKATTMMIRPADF

T2: murine Ang-2, His-tagged (mouse, UniProt O35608 19-496)
T2 construct: also called mAng-2; mAng-2-His
T2 sequence (looked up): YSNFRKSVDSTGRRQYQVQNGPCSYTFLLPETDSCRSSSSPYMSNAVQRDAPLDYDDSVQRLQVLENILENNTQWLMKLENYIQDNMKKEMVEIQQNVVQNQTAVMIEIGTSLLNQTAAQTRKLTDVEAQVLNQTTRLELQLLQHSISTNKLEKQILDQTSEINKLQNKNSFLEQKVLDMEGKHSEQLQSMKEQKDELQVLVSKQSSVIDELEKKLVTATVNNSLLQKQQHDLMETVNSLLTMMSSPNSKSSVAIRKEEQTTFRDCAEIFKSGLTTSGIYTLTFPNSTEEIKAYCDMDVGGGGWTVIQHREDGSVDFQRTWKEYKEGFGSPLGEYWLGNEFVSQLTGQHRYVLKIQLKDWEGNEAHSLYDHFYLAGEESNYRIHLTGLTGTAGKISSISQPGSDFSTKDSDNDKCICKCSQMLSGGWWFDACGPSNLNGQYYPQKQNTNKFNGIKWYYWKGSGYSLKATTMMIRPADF

B1: Ab 543 (antibody, human IgG1, kappa, V domains shown)
VH: QVQLVQSGAEVKKPGSSVKVSCKASGGTFSSYAISWVRQAPGQGLEWMGRIIPILGIANYAQKFQGRVTITADKSTSTAYMELSSLRSEDTAVYYCARPYYDFWSGPGGMDVWGQGTTVTVSS
VL: not shown
notes: Fully human IgG1 kappa
B2: Ab 537 (antibody, human IgG1, V domains shown)
VH: QVQLVQSGAEVKKPGSSVKVSCKASGGTFSSYAISWVRQAPGQGLEWMGGIIPILGIANYAQKFQGRVTITADKSTSTAYMELSGLGSEDTAVYYCARGSSDAAVAGMWGQGTLVTVSS
VL: QSVLTQPPSVSAAPGQDVTISCSGNNSNIGNNYVSWYQQVPGTAPKLLVYDNHKRPSGISDRFSGSKSDTSATLDITGLQPGDEADYYCGTWDTSLSANWVFGGGTKLTVLR
notes: Fully human IgG1 lambda; also called clone 537
B3: Ab 528 (antibody, human IgG1, lambda, V domains shown)
VH: QVQLVQSGAEVKKPGSSVKVSCKASGGTFSSYAISWVRQAPGQGLEWMGGIIPIFGTANYAQKFQGRVTITADESTSTAYMELSSLRSEDTAVYYCARGVVGDFDWLSFFDYWGQGTLVTVSS
VL: SYELTQPPSVSVSPGQTASITCSGDKLGYTYTSWFQQKPGQSPVLVIFQDFKRPSGIPERFSGSNSGNTATLTISGTQAMDEADYYCQAWDSTTAVVFGTGTKVTVLG
notes: Fully human IgG1 lambda
B4: Ab 540 (antibody, human IgG1, lambda, V domains shown)
VH: QVQLVQSGAEVKKPGSSVKVSCKASGGTFSSYAISWVRQAPGQGLEWMGGIIPILGIANYAQKFQGRVTITADKFTSTAYMELSSLGSEDTAVYYCARAVPGTEDAFDIWGQGTMVTVSS
VL: QSVLTQPPSVSAAPGQKVTISCSGSSSNIGANYVSWYQQLPGTAPKLLIYNNNKRPSGIPDRFSGSKSDTSATLGITGLQTGDEADYYCGAWDSSLSASWVFGGGTKLTVLG
notes: Fully human IgG1 lambda
B5: Ab 531 (antibody, human IgG1, lambda, V domains shown)
VH: EVQLVQSGAEVKKPGSSVKVSCKASGGTFSSYAISWVRQAPGQGLEWMGGIIPILGIANYAQKFQGRVTITADKSTNTAYMELTSLTSDDTAVYYCARDREDTAMVFNYWGQGTLVTVSS
VL: QSVLTQPPSVSAAPGQKVTVSCSGSSSNIGNNYVSWYQQLPGTAPKLLIYDNNKRPSGIPDRFSGSKSGTSATLGITGLQTGDEADYYCGTWDSSLSAFWVFGGGTKLTVLG
notes: Fully human IgG1 lambda
B6: Ab 533 (antibody, human IgG1, kappa, V domains shown)
VH: EVQLVQSGGGVVQPGRSLRLSCAASGFTFSSYGMHWVRQAPGKGLEWVSYISSSGSTIYYADSVKGRFTISRDNAKNSLYLQMNSLRAEDTAVYYCARDLLDYDILTGYGYWGQGTLVTVSS
VL: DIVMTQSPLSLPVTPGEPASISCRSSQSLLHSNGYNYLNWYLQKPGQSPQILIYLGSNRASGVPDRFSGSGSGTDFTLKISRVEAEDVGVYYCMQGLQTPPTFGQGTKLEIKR
notes: also called clone 533
B7: Ab 553 (antibody, human IgG1, kappa, V domains shown)
VH: QVQLVQSGAEVKKPGASVKVSCKASGYTFTSYAMHWVRQAPGQRLEWMGWINAGNGNTKYSQKFQGRVTITRDTSASTAYMELSGLRSEDTAVYYCARGVDDYGGNSWAFDIWGQGTMVTVSS
VL: DIVMTQSPLSLPVTPGEPASISCRSSQSLLHSNGYNYLDWYLQKPGQSPQLLIYLGSNRASGVPDRFTGSGSATDFTLRISRVEAEDVGVYYCMQALQTPLTFGGGTKVEIKR
notes: Fully human IgG1 kappa
B8: Ab 535 (antibody, human IgG1, lambda, V domains shown)
VH: QVQLVQSGAEVKKPGSSVKVSCKASGGTFSSYAISWVRQAPGQGLEWMGGIIPIFGTANYAQKFQGRVTITADKSTSTAYMELSSLRSEDTAVYYCAAFSPFTETDAFDIWGQGTMVTVSS
VL: QSVLTQPPSVSAAPGQKVTISCSGSNSNIGNNFVSWYQQLPGTAPKLLVYDNNKRPSGIPDRFSGSKSGTSATLGITGLQTGDEADYYCGTWDSSLSAAEVVFGGGTKLTVLG
notes: Fully human IgG1 lambda
B9: Ab 555 (antibody, human IgG1, kappa, V domains shown)
VH: QVQLQESGGGVVQPGRSLRLSCAASGFTFSSYAMHWVRQAPGKGLEWVAVISYDGSNKYYADSVKGRFTISRDNSKNTLYLQMNSLRAEDTAVYYCARSASDHYYDSSGYYSDAFDIWGQGTMVTVSS
VL: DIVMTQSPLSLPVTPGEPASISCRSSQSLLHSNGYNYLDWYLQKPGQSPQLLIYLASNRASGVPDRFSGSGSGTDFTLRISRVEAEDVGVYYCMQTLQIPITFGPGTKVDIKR
notes: Fully human IgG1 kappa

What was measured:
[1] = target: T1, human angiopoietin-2; assay: Neutralization ELISA: antibody titrated against 1 nM Tie2-Fc on plate-bound hAng-2
Experimental: Microtiter plates to which human Ang-2 polypeptide was bound were prepared as described for the Affinity ELISA. […] Next, about 100 microliters per well of goat anti-mouse-IgG-HRP (Pierce Chemical CO., catalog #31432) was added at a dilution of 1:10,000 in PBS containing about 1 percent BSA. Plates were incubated at room temperature for about 1 hour, after which they were washed five times with PBS containing about 0.1 percent Tween-20. About 100 microliters per well of TMB substrate (described above) was then added and color was allowed to develop. Absorbance was then read in a spectrophotomer at 370 nm.
Seventeen of the antibodies and a negative control IgG1 (referred to as RDB1) were tested using affinity and neutralization ELISA (as described in Example 3 above) as well as the BIAcore neutralization assay to determine their affinity, neutralization, and specificity capabilities.

[2] = target: T2, murine Ang-2, His-tagged; assay: Neutralization ELISA: antibody titrated against 1 nM Tie2-Fc on plate-bound mAng-2

| Binder | IC50 [1] [nM] | IC50 [2] [nM] |
| --- | --- | --- |
| B1 | 0.51 | 0.24 |
| B2 | 0.56 | 0.62 |
| B3 | 1.37 | 0.73 |
| B4 | 0.7 | 1.53 |
| B5 | 2.15 | 1.67 |
| B6 | 0.3 | 0.08 |
| B7 | 1.47 | 1.41 |
| B8 | 2.81 | 2.45 |
| B9 | 2.21 | 1.76 |
